Test [1] addresses T1, Recombinant Human DLL4 (delta-like protein 4) (human, UniProt Q9NR61 27-529).
T1 construct: Bought recombinant protein (R&D Systems Cat#1506-D4/CF); also called rHuman DLL4; Delta-like 4
Nature of the test: ECL (MSD) 96-well plate assay; plate coated with 30 µg/mL DLL4; Fab 0.02 µM.

Test [2] addresses T1, Recombinant Human DLL4 (delta-like …). Nature of the test: ECL (MSD) 96-well plate assay; plate coated with 15 µg/mL DLL4; Fab 0.004 µM.
Test [3] concerns the target T2, Recombinant Human DLL4 (delta-like protein 4) (human, UniProt Q9NR61 27-524).
T2 construct: also called rHuman DLL4; Delta-like 4
Nature of the test: ELISA, Fab on plate-coated DLL4. (In an ELISA, binding on a coated surface is turned into a signal by an enzyme label.)

For test [4], the target named is T2, Recombinant Human DLL4 (delta-like …). Nature of the test: ECL (MSD) binding assay, Fab on immobilized DLL4.
Test [5] has as its target T3, rHuman ErbB2/Fc Chimera, CF (R&D Systems Cat#1129-ER) (human, UniProt P04626 23-652).
T3 construct: Bought recombinant protein; also called human epidermal growth factor 2 receptor; Fc part of the bought chimera not given
Nature of the test: ECL multispot (MSD) binding assay, antigen spotted on plate, Fab 0.04 uM.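 Further: purified Fab incubated 1 h at 20 °C on antigen spots, detected via TAG-labelled antibody, ECL read against each well's blank, with signal-to-blank of at least 4 scored as binder.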

In test [6] the target is T4, rHuman EGF R/Fc Chimera, CF (R&D Systems Cat#344-ER) (human, UniProt P00533 25-645).
T4 construct: Bought recombinant protein; also called epidermal growth factor receptor; Fc part of the bought chimera not given
The description is as above.

For test [7], the target named is T5, rHuman Notch-1/Fc Chimera, CF (R&D Systems Cat#3647-TK) (human, UniProt P46531 19-526).
T5 construct: Bought recombinant protein; Fc part of the bought chimera not given
The description is as above.

Test [8] concerns the target T6, rHuman CD44/Fc Chimera, CF (R&D Systems Cat#3660-CD) (human, UniProt P16070 21-220).
T6 construct: Bought recombinant protein; Fc part of the bought chimera not given
Described as above.

Test [9] concerns the target T7, rHuman P-Cadherin/Fc Chimera, CF (R&D Systems Cat#861-PC) (human, UniProt P22223 108-654).
T7 construct: Bought recombinant protein; Fc part of the bought chimera not given
The description is as above.

For test [10], the target named is T8, rHuman Erythropoietin R/Fc Chimera, CF (R&D Systems Cat#963-ER) (human, UniProt P19235 25-250).
T8 construct: Bought recombinant protein; also called EPO R; EPO R/Fc; Fc part of the bought chimera not given
T8 sequence (looked up): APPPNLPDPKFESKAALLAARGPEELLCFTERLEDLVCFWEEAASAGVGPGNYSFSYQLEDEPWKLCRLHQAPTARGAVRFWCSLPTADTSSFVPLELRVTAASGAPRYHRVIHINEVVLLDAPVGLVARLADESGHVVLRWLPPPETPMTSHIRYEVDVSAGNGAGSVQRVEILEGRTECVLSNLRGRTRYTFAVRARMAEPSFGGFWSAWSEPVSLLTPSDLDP
Described as above.

The target in test [11] is T9, Recombinant Human DLL4 (R&D Systems Cat#1506-D4/CF) (human, UniProt Q9NR61 27-524).
T9 construct: Bought recombinant protein; also called delta-like protein 4; rHuman DLL4
The description is as above.

Test [12] addresses T10, Recombinant Human DLL4 (R&D Systems Cat#1506-D4/CF) (human, UniProt Q9NR61 27-524).
T10 construct: also called rHuman DLL4; delta-like protein 4
Nature of the test: ECL (MSD) binding assay, Fab on immobilized recombinant human DLL4.

B1: Fab VH1-46_IGHD6-6*01_IGHJ1*01 S104C & L6_IGKJ1*01 (Fab, V domains shown)
VH: QVQLVQSGAEVKKPGASVKVSCKASGYTFTSYYMHWVRQAPGQGLEWMGIINPSGGSTSYAQKFQGRVTMTRDTSTSTVYMELSSLRSEDTAVYYCAREEYSSCSAEYFQHWGQGTLVTVSS
VL: not shown
notes: Fab; The VH was cloned into Plasmid A (CH1, His6 and Flag tags) and the kappa VL into Plasmid C (kappa CL); expressed in E. coli
As for B1, the Signal/Noise was 9.9 in test [1] and 8.4 in [2].

B2: Fab VH1-46_IGHD6-6*01_IGHJ1*01 S104R & L6_IGKJ1*01 (Fab, V domains shown)
VH: QVQLVQSGAEVKKPGASVKVSCKASGYTFTSYYMHWVRQAPGQGLEWMGIINPSGGSTSYAQKFQGRVTMTRDTSTSTVYMELSSLRSEDTAVYYCAREEYSSRSAEYFQHWGQGTLVTVSS
VL: not shown
notes: as for B1
Consider B2, for which the figures for the Signal/Noise in test [1] and in [2] were 23.4 and 28.6, respectively.

B3: Fab VH5-51_IGHD5-18*01>3_IGHJ4*01 G100K/G104T G35A & V3-4_IGLJ1*01 (Fab, V domains shown)
VH: EVQLVQSGAEVKKPGESLKISCKGSGYSFTSYWIAWVRQMPGKGLEWMGIIYPGDSDTRYSPSFQGQVTISADKSISTAYLQWSSLKASDTAMYYCARRKYSYTYDYFDYWGQGTLVTVSS
VL: QTVVTQEPSFSVSPGGTVTLTCGLSSGSVSTSYYPSWYQQTPGQAPRTLIYSTNTRSSGVPDRFSGSILGNKAALTITGAQADDESDYYCVLYMGSGISYVFGTGTKVTVL
notes: Fab from E. coli: VH-CH1 from Plasmid A with His6 and Flag tags, VL with lambda CL from Plasmid E; also called KT G35A
Regarding B3, the “ELISA (Signal-Noise)” value in [3] is 0.06. In test [4], the “ECL signal” value stood at 19700.

B4: Fab VH5-51_IGHD5-18*01>3_IGHJ4*01 G100K/G104T (H:KT) & V3-4_IGLJ1*01 S99A (Fab, V domains shown)
VH: EVQLVQSGAEVKKPGESLKISCKGSGYSFTSYWIGWVRQMPGKGLEWMGIIYPGDSDTRYSPSFQGQVTISADKSISTAYLQWSSLKASDTAMYYCARRKYSYTYDYFDYWGQGTLVTVSS
VL: QTVVTQEPSFSVSPGGTVTLTCGLSSGSVSTSYYPSWYQQTPGQAPRTLIYSTNTRSSGVPDRFSGSILGNKAALTITGAQADDESDYYCVLYMGSGIAYVFGTGTKVTVL
notes: Fab; Expressed from Plasmid A (CH1, His6 and Flag tags) and Plasmid E (lambda CL); also called KT & S99A
For the molecule B4, the ECL signal in test [5] was 1320; in test [6], 956; in [7], 674; in test [8] it was 670; in test [9], 500; in [10], 693. For the same molecule, in test [11], the ECL signal was 18200.

B5: Fab VH5-51_IGHD5-18*01>3_IGHJ4*01 G100K/G104T (H:KT) & V3-4_IGLJ1*01 Y93A (Fab, V domains shown)
VH: EVQLVQSGAEVKKPGESLKISCKGSGYSFTSYWIGWVRQMPGKGLEWMGIIYPGDSDTRYSPSFQGQVTISADKSISTAYLQWSSLKASDTAMYYCARRKYSYTYDYFDYWGQGTLVTVSS
VL: QTVVTQEPSFSVSPGGTVTLTCGLSSGSVSTSYYPSWYQQTPGQAPRTLIYSTNTRSSGVPDRFSGSILGNKAALTITGAQADDESDYYCVLAMGSGISYVFGTGTKVTVL
notes: Fab; Expressed from Plasmid A (CH1, His6 and Flag tags) and Plasmid E (lambda CL); also called KT & Y93A
In the case of B5, the ECL signal was 725 in [7]; 700 in [8]; 497 in [9]; 602 in test [10]; 8110 in test [11].

B6: Fab VH5-51_IGHD5-18*01>3_IGHJ4*01 G100K/G104T (H:KT) & V3-4_IGLJ1*01 S96A (Fab, V domains shown)
VH: EVQLVQSGAEVKKPGESLKISCKGSGYSFTSYWIGWVRQMPGKGLEWMGIIYPGDSDTRYSPSFQGQVTISADKSISTAYLQWSSLKASDTAMYYCARRKYSYTYDYFDYWGQGTLVTVSS
VL: QTVVTQEPSFSVSPGGTVTLTCGLSSGSVSTSYYPSWYQQTPGQAPRTLIYSTNTRSSGVPDRFSGSILGNKAALTITGAQADDESDYYCVLYMGAGISYVFGTGTKVTVL
notes: Fab; Expressed from Plasmid A (CH1, His6 and Flag tags) and Plasmid E (lambda CL); also called KT & S96A
As to B6, the ECL signal in [5] stood at 1280; in test [6], 1000; in test [9], 491; in test [11], 32300.

B7: Fab VH5-51_IGHD5-18*01>3_IGHJ4*01 G100K/G104T/G24L/S28R/G35V (KT LRV) & V3-4_IGLJ1*01 (Fab, V domains shown)
VH: EVQLVQSGAEVKKPGESLKISCKLSGYRFTSYWIVWVRQMPGKGLEWMGIIYPGDSDTRYSPSFQGQVTISADKSISTAYLQWSSLKASDTAMYYCARRKYSYTYDYFDYWGQGTLVTVSS
VL: QTVVTQEPSFSVSPGGTVTLTCGLSSGSVSTSYYPSWYQQTPGQAPRTLIYSTNTRSSGVPDRFSGSILGNKAALTITGAQADDESDYYCVLYMGSGISYVFGTGTKVTVL
notes: Tested as Fab; CH1 with His6/Flag tags (plasmid A) and lambda CL (plasmid E) come from the expression vectors
As to B7, in [12], the “ECL signal” value came to 15300.

Source of the values: patent US20120316071A1 (published 2012).
